Laboratory results from patent US20130216549A1 (NOVLMMUNE S A, published 2013).

Experiments:
[1] = biological target: T1, NusA-cynomolgus IP-10 fusion protein (cynomolgus, UniProt Q8MIZ1 22-98 (rhesus entry)); experiment: capture ELISA: NI-0801 coated, NusA fusion protein titrated (CK Conc [M]), detected with anti-NusA antibody, fluorescence
T1 construct: junction and C-terminal AviTag not spelled out
T1 sequence: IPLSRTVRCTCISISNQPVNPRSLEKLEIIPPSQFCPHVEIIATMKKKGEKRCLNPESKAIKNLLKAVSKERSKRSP
Excerpt: (§1) Briefly, IP-10 cloned from cDNA isolated from mouse, rat, rabbit and cynomolgus as well as a panel of human chemokines was expressed and purified as described in Example 1.

[2] = biological target: T2, NusA-rat IP-10 fusion protein (rat, UniProt P48973 22-98); experiment: capture ELISA: NI-0801 coated, NusA fusion protein titrated, detected with anti-NusA antibody, fluorescence
T2 chain: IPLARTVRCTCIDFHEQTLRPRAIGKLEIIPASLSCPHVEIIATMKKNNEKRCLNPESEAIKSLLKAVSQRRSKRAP
Excerpt: as §1

[3] = biological target: T3, recombinant human IP-10 (Peprotech) (human, UniProt P02778 22-98); experiment: cell-based or functional assay
T3 sequence: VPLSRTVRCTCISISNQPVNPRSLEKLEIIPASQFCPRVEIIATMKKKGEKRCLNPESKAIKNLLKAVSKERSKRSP

B1: NI-0801 (IgG1-formatted) (antibody, V domains shown)
VH: QVQLVESGGGVVQPGRSLRLSCAASGFTFSNSGIHWVRQAPGKGLEWVAVISYDGSNKYYADSVKGRFTISRDNSKNTLYLQMNSLRAEDTAVYYCARLRDNAEYTDYWGQGTLVTVSS
VL: NFMLTQPHSVSESPGKTVTISCTGSGGSIASNYVQWYQQRPGSSPTTVIYEDNQRPSGVPDRFSGSIDSSSNSASLTISGLKTEDEADYYCQSYDPLPVWVFGGGTKLTVLG
**Q.** With B1 as the binder, how does the “EC50 (read off the curve)” value [1] read?
**A.** Its value is about 1 nM.

**Q.** Does B1 bind [2]?
**A.** Result: no binding (tested: about 2.5e-7 M)

B2: CC21R3P1_A2 (scFv format) (scFv, V domains shown)
VH: QLVESGGGLIQPGGSLRLSCAASGFSVSDTYMNWVRQAPGKGLEWVSSIYSDDSTYYADSVKGRFTISRDNSKNTLFLQINSLRAEDTAVYYCARDKEYVTSTGGAYYYFYYMDVWGQGTLVTVSS
VL: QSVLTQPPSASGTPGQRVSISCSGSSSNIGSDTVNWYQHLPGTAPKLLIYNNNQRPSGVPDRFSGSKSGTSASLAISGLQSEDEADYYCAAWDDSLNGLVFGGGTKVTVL
**Q.** What does the source list for B2?
**A.** Calcium flux IC50 (nM); 10 nM hIP-10 [3]: 36 nM; Chemotaxis IC50 (nM); 1 nM hIP-10 [3]: 7 nM
